Measurements taken from PMC3985513 (Biochemistry, 2014).
Read-outs that look alike come from different tables or passages of the source.

B1: SwHaCE (H-NOX-associated cyclic-di-GMP processing enzyme from Shewanella woodyi, diguanylate cyclase/phosphodiesterase) (enzyme, UniProt B1KIH5 1-637, looked up)
chain: MSALEDREQVFLRRIDREKRARQQAEQILNEKSKELWNTNQKLQQINEQLDQMVKTRTSELEIAKTNAELESLAHKNAKERFQLAMRATSAGVWERNIDEDAWYFSDRLIALFGYSREELLFGFKNLSFIHNEDKKPLLHVLKNHFRNGKAFDFECRVLTSEGRYKWFWIVGQAVWNDKGEVVRIAGSFSDIDERVENSKLVEKMAHYDHLTMVPNRVLYNQKLDIALSLADKEQSHLAVILIDLNDFKQVNDTLGHSAGDHLLQHIANQFKLNISESDIVARLGGDEFSIVLTNIANRQAVVTKCEQVLEIISRPFYYQKNLIIPKISMGIALYPEYGMTRDELMVNADLAMYKAKGEKHMGSGFQFCEQEHINKNMERTELSSELCEAITENEFFMHFQPIIDLSNGEVTFAEALIRWKHTNKGVLLPEKFISIAEDSGLITRLGKLSIELVAKQIDRMMAAKRLQKLTINISPSHFLSQSFMEDLKEILSVYPKMSSFITIEITEVVFLLNMEVAKKTVIELHDMGITISLDDFGTGYSSFKYLQQLPIDVIKLDCSFIAELDIDPSHRNIASTIIELAHSLEIKVIAEGVETNSQLVFLQDHHCDFAQGSYFFKPLSVIDFLHMQRCISLPAK

Tests used:
[1] = target: the molecule itself; assay: AUC
[2] = target: B1; assay: AUC
[3] = target: B1; assay: AUC; remark: listed apart in the source
[4] = target: B1; assay: other fluorescence titration

Binder	stoichiometry N [1]	stoichiometry N [2]	stoichiometry N [3]	Kd [4] [nM]
B1	2			
SwH-NOX (heme-nitric oxide/oxygen binding protein from Shewanella woodyi), wild type (natural protein, UniProt B1KIH6 1-182, looked up) MMGMVFTGLMELIEDEFGYETLDTLLESCELQSEGIYTSVGSYDHQELLQLVVKLSEVSSVPVTELVRLFGKKLFVELIEGHPEIANEMKDSFDLLSKIDSFIHVEVYKLYPQAELPKFTCDRLGDNDIRLHYQSKRPFASFAEGLLDGCAEYFKEDFTISRTPETQDSETDVIFNITRAPR		1 H-NOX per HaCE (2+2)	1 H-NOX per HaCE (2+2)	2500 to 3000
